Assay [1] has as its target T1, cynomolgus monkey TG2 (cynomolgus monkey, UniProt A0A2K5VXI8 1-687).
T1 sequence: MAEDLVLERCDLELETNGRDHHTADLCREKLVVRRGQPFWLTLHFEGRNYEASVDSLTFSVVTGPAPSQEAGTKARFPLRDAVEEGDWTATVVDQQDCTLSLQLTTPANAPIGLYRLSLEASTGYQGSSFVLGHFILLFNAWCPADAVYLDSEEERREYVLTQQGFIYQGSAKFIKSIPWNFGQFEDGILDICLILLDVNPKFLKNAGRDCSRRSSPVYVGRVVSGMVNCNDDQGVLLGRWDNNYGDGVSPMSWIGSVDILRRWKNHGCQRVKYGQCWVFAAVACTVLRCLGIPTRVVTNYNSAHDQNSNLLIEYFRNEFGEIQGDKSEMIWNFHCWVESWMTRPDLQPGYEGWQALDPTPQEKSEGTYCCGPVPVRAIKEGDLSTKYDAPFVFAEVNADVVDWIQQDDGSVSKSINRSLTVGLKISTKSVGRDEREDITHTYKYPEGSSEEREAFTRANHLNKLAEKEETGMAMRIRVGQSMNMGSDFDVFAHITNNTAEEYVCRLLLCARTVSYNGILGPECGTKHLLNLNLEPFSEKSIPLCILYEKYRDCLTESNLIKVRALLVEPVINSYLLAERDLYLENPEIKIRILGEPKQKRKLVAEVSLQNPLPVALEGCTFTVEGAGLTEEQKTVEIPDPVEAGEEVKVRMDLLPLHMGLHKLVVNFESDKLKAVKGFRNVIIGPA
Nature of the assay: cell-based or functional assay.

The target of assay [2] is T2, human transglutaminase type 2 (TG2) (human, UniProt P21980 1-687).
T2 sequence: T1 sequence with D4E, R157Q, S177N, S413H, T421I, H528Y, I542V
The assay is described as follows: cell-based or functional assay.

The target of assay [3] is T1, cynomolgus monkey TG2. Nature of the assay: SPR (Biacore T200), antibody captured on anti-human IgG1 Fc chip, TG2 injected; calcium condition not marked in the row. The method, then: (§1) Recombinant cynomolgus monkey TG2 was obtained from Trenzyme. Surface plasmon resonance (SPR) was measured on a Biacore T200 instrument (GE Healthcare). CM5 chips (GE Healthcare cat. no.: BR-1006-68) were coated with monoclonal mouse anti-human IgG1 (Fc) (MAH) antibody (GE Healthcare cat. no.: BR-1008-39) by amine-coupling as described in the manufacturers instructions. HBS-EP+ buffer (0.01 M HEPES, 0.15 M NaCl, 3 mM EDTA, 0.05% v/v Surfactant P20) and HBS-P+ buffer (0.01 M HEPES, 0.15 M NaCl, 0.05% Surfactant P20) were purchased from GE Healthcare as 10× stocks (cat. nos.: BR-1006-69 and BR-1006-71). Calcium Chloride solution was obtained from Sigma Aldrich (cat. no.:21115).
(§2) The method employed to determine the affinity of the anti-TG2 antibodies involved the capture of the chimeric or humanised antibodies on a MAH coated CM5 chip, followed by the injection of a series of TG2 samples in running buffer. The running buffer was 1×HBS-P+ containing 1 mM CaCl_2, or 1×HBS-EP+ for calcium-free experiments. Antibody capture was carried out for a contact time of 120 seconds at a flow rate of 10 μl/min resulting in the capture of approximately 40-80 RU. TG2 was injected over the immobilised antibody at concentrations ranging from 25 nM to 400 nM with a contact time up to 600 seconds at a flow rate of 30 μl/min. Dissociation of TG2 was typically measured for up to 5400 seconds (1.5 hours). Regeneration of the chip was then performed using 3 M MgCl_2, for a contact time of 60 seconds at a flow rate of […], followed by a 300 s stabilisation period before the next sample. For each of human and cynomolgus monkey TG2, at least 5 injections at a variety of concentrations were performed in at least two separate experiments.
(§3) Kinetic data were exported from the Biacore T200 Evaluation Software and analysed using GraphPad Prism, where the association phases and dissociation phases were analysed separately using a one phase association model and one-phase exponential decay model respectively. Association rates ($kon$) were calculated for each curve individually, and dissociation rates ($koff$) values from the long dissociation phase data collected. Where $koff$ values were calculated to be $<1\times10^-5$ s^-1, values were set at 1×10^-5 for analysis, as rates slower than this could not be estimated accurately.

Assay [4] addresses T2, human transglutaminase type 2 (TG2). The assay is described as above. The method, then: as §1, §2, §3
Assay [5] shares this target. The assay is described as follows: ELISA on immobilised human TG2; r2 0.9794; EC50 95% confidence range 0.01199 to 0.03342 [panel B]. The method, then:
(§4) Antibody binding to human and cynomolgus monkey TG2 was determined in an ELISA assay. Clear polystyrene "Maxisorp" 96-well plates (Nunc) were coated with 50 ng purified human or cynomogulus monkey TG2 in 50 µl 0.05 M carbonate-bicarbonate buffer pH 9.6 at 4° C. overnight. Control wells were coated with 50 µl 100 µg/ml bovine serum albumin (BSA). Plates were washed 3× with 300 µl phosphate-buffered saline pH7.4 (PBS) containing 0.1% Tween 20 (PBST) and blocked with 300 µl 3% w/v Marvel skimmed milk in PBS for 1 hour at room temperature. After 3× wash with PBST, 50 µl protein-A purified chimeric or humanised anti-TG2 antibodies or human IgG1 kappa […] control antibody or CUB7402 (Abcam) were serially diluted 4-fold from a top concentration of 50 nM in PBS, and added to the plate in duplicate. […] After 3× washes with PBST, the plates were developed with 50 µl TMB substrate (Sigma) for 5 min at room temperature before stopping the reaction with 25 µl 0.5M H2SO4 and reading absorbance at 450 nm in a microtiter plate reader (BioTek EL808). Dose response curves were analysed and EC50 values and other statistical parameters determined using a 4-parameter logistical fit of the data (GraphPad Prism).
(An ELISA detects its analyte on a solid surface through an enzyme-linked reagent.)

Assay [6] has as its target T1, cynomolgus monkey TG2. The assay is described as follows: ELISA on immobilised cynomolgus monkey TG2; r2 0.9766; EC50 95% confidence range 0.04047 to 0.09246 [panel B]. Here is the method:
as §4

In assay [7] the target is T2, human transglutaminase type 2 (TG2). Nature of the assay: cell-based or functional assay. The source holds these as a separate data set.
Assay [8] addresses T1, cynomolgus monkey TG2. The assay is described as follows: ELISA on immobilised cynomolgus monkey TG2; r2 0.9361; EC50 95% confidence range 0.04198 to 0.1296 [panel A]. The method, then: as §4
Assay [9] deals with T2, human transglutaminase type 2 (TG2). The assay is described as follows: cell-based or functional assay. This is another data set of the same source.
The target is the same in assay [10]. The assay is described as follows: ELISA on immobilised human TG2; r2 0.9771; EC50 95% confidence range 0.04636 to 0.08491 [panel A]. Here is the method: as §4
Assay [11] addresses T1, cynomolgus monkey TG2. The assay is described as follows: ELISA on immobilised cynomolgus monkey TG2; r2 0.9329; EC50 95% confidence range 0.03522 to 0.08934 [panel A]. Here is the method: as §4
Assay [12] deals with T2, human transglutaminase type 2 (TG2). The assay is described as follows: ELISA on immobilised human TG2; r2 0.9792; EC50 95% confidence range ND [panel A]. The method, then:
as §4

Positions count from the first letter of the chain named.

The results in this text go back to patent publication US10005846 (LIFEARC, dated 2018).

The Kd is the constant that tells how readily two partners part at equilibrium. The term koff denotes the first-order rate constant of dissociation. One may read the kon as a measure of how fast the partners come together. As a reminder, the EC50 is the concentration at which the effect is half-maximal.

B1: hAB004 (hAB001AE) humanised AB1 antibody (antibody, V domains shown)
VH: EVQLLESGGGLVQPGGSLRLSCAASGFTFSSSAMSWVRQAPGKGLEWVSTISVGGGKTYYPDSVKGRFTISRDNSKNTLYLQMNSLRAEDTAVYYCAKLISLYWGQGTLVTVSS
VL: EIVLTQSPSSLSASVGDRVTITCKASQDINSYLTWYQQKPGKAPKLLIYRTNRLFDGVPSRFSGSGSGTDFFFTISSLQPEDFGTYYCLQYDDFPYTFGGGTKLEIK
notes: they were captured by anti-human IgG1 (Fc); also called Heavy Chain version RHA with Light Chain version RKE
With B1, the “IC50 of enzymatic inhibition, dansylated lysine incorporation into N,N-dimethylated casein [panel B]” value with cynomolgus monkey TG2 [1] was 7.85 nM. For the same molecule, the “IC50 of enzymatic inhibition, dansylated lysine incorporation into N,N-dimethylated casein [continued), panel D]” value in assay [2] amounted to 3.85 nM. Moreover, in the assay with cynomolgus monkey TG2 [3], the Kd came out at 0.11 nM, the koff is 1.8e-05 s⁻¹ and the kon is 160000 M⁻¹ s⁻¹. Further, in assay [4], the Kd came out at 0.12 nM, the koff is 2.4e-05 s⁻¹ and the kon turned out to be 200000 M⁻¹ s⁻¹. In assay [5], a half-maximal response (EC50) required 0.02 nM. Moreover, the midpoint of the response in the assay with cynomolgus monkey TG2 [6], the EC50, lay at 0.0612 nM.

B2: hBB001BB humanised BB7 antibody (antibody, V domains shown)
VH: B1 VH with F27I, T28I, S49A, V53S, G56R, K57S, I70V, N74S, L102P
VL: DIKMTQSPSSLSASVGDRVTITCKASQDINSYLTWFQQKPGKAPKTLIYLTNRLMDGVPSRFSGSGSGQEFLLTISSLQPEDFATYYCLQYVDFPYTFGQGTKVEIK
notes: BB is read as heavy chain hBB001HB (BB7_RHB) with kappa chain hBB001KB (BB7_RKB)
Turning to B2, the “IC50, extracellular TG activity of HK-2 cells, biotin cadaverine incorporation into fibronectin” value in [7] was found to be 4.9 nM. Further, in the assay with cynomolgus monkey TG2 [8], the EC50 is 0.0738 nM. In assay [9], the “IC50 of enzymatic inhibition, dansylated lysine incorporation into N,N-dimethylated casein [panel B]” value came to 0.985 nM. The molecule also gave a half-maximal effective concentration (EC50) in assay [10] of 0.0627 nM. Moreover, in the assay with cynomolgus monkey TG2 [3], the Kd turned out to be 0.14 nM, the koff is 3.7e-05 s⁻¹ and the kon was 270000 M⁻¹ s⁻¹. Also, in [4], the Kd was less than 0.04 nM, the koff is less than 1e-05 s⁻¹ and the kon was 240000 M⁻¹ s⁻¹.

B3: hBB001AA humanised BB7 antibody (antibody, V domains shown)
VH: B1 VH with V53S, G56R, K57S, L102P
VL: B2 VL with K3Q, T46S, Q69T, E70D, L72F
notes: captured by anti-human IgG1 (Fc); also called hBB01AA
Consider B3, for which, in assay [7], the “IC50, extracellular TG activity of HK-2 cells, biotin cadaverine incorporation into fibronectin” value came to 19.8 nM. Further, the results for the “IC50 of enzymatic inhibition, dansylated lysine incorporation into N,N-dimethylated casein [panel A]” value (with cynomolgus monkey TG2 [1]; in assay [9]) were 8.51 nM and 5.99 nM, respectively. For the same molecule, the EC50 is 0.0561 nM with cynomolgus monkey TG2 [11] and approximately 0.0474 nM in [12]. Also, in the assay with cynomolgus monkey TG2 [3], the Kd is less than 0.03 nM. Moreover, in the assay with cynomolgus monkey TG2 [3], the koff was less than 1e-05 s⁻¹. The kon in the assay with cynomolgus monkey TG2 [3] came to 300000 M⁻¹ s⁻¹; in assay [4], 270000 M⁻¹ s⁻¹.
